The text below walks through data of patent US12351616B2, “Peptides and combination of peptides for use in immunotherapy against esophageal cancer and other cancers” (Immatics Biotechnologies GmbH, priority 2015, dated 2025).

The assay deals with HLA-A*02:01 (Homo sapiens, UniProt P04439, D140Y/D185E/D98H/E176V/E277Q/G131W/G231S/I119V/I121R/I166T/I218V/L300P/L318F/N151K/N90K/P208A/P217A/Q86G/Q94H/R138H/R169H/T345S). Briefly: MHC binding assay: UV-ligand exchange with β2m ELISA. As to conditions: peptide exchange yield, binding to HLA-A*02:01. The text has this:
Candidate peptides for T cell based therapies according to the present invention were further tested for their MHC binding capacity (affinity). The individual peptide-MHC complexes were produced by UV-ligand exchange, where a UV-sensitive peptide is cleaved upon UV-irradiation, and exchanged with the peptide of interest as analyzed. Only peptide candidates that can effectively bind and stabilize the peptide-receptive MHC molecules prevent dissociation of the MHC complexes. To determine the yield of the exchange reaction, an ELISA was performed based on the detection of the light chain (β2m) of stabilized MHC complexes. The assay was performed as generally described in Rodenko et al. (Rodenko et al., 2006).
96 well MAXISorp plates (NUNC) were coated over night with 2 ug/ml streptavidin in PBS at room temperature, washed 4× and blocked for 1 h at 37° C. in 2% BSA containing blocking buffer. Refolded HLA-A*02:01/MLA-001 monomers served as standards, covering the range of 15-500 ng/ml. Peptide-MHC monomers of the UV-exchange reaction were diluted 100 fold in blocking buffer. Samples were incubated for 1 h at 37° C., washed four times, incubated with 2 ug/ml HRP conjugated anti-β2m for 1 h at 37° C., washed again and detected with TMB solution that is stopped with […]. Absorption was measured at 450 nm. Candidate peptides that show a high exchange yield (preferably higher than 50%, most preferred higher than 75%) are generally preferred for a generation and production of antibodies or fragments thereof, and/or T cell receptors or fragments thereof, as they show sufficient avidity to the MHC molecules and prevent dissociation of the MHC complexes.
For the substance “3 (TASAITPSV; listed as Homo sapiens) [compound 3]”, the Peptide exchange result is given as “+++ (≥50 = +++)”.

As for “7 (SIFEGLLSGV; listed as Homo sapiens) [compound 7]”, the Peptide exchange result is “++ (≥20% = ++)”.

As for “8 (ALLDGGSEAYWRV; listed as Homo sapiens) [compound 8]”, the Peptide exchange result was “+++ (≥50 = +++)”.

For “9 (HLIAEIHTA; listed as Homo sapiens) [compound 9]”, the Peptide exchange result was “+++ (≥50 = +++)”.

As for “10 (SLDENSDQQV; listed as Homo sapiens) [compound 10]”, the Peptide exchange entry was “+++ (≥50 = +++)”.

Regarding “11 (ALWLPTDSATV; listed as Homo sapiens) [compound 11]”, the Peptide exchange result is recorded as “+++ (≥50 = +++)”.

Consider “13 (SLSPVILGV; listed as Homo sapiens) [compound 13]”, for which the Peptide exchange result is given as “++++ (≥75% = ++++)”.

Regarding “14 (RLPNAGTQV; listed as Homo sapiens) [compound 14]”, the Peptide exchange result was “++++ (≥75% = ++++)”.

Regarding “15 (LLANGVYAA; listed as Homo sapiens) [compound 15]”, the Peptide exchange entry is recorded as “+ (≥10% = +)”.

“16 (VLAEGGEGV; listed as Homo sapiens) [compound 16]”: the Peptide exchange entry is “+++ (≥50 = +++)”.

On to “17 (MISRTPEV; listed as Homo sapiens) [compound 17]”, for which the Peptide exchange result is given as “++ (≥20% = ++)”.

As to “18 (FLLDQVQLGL; listed as Homo sapiens) [compound 18]”, the Peptide exchange entry was “+++ (≥50 = +++)”.

Turning to “21 (IVREFLTAL; listed as Homo sapiens) [compound 21]”, the Peptide exchange result was “+++ (≥50 = +++)”.

Turning to “22 (KLNDTYVNV; listed as Homo sapiens) [compound 22]”, the Peptide exchange entry is recorded as “+++ (≥50 = +++)”.

In the case of “23 (KLSDSATYL; listed as Homo sapiens) [compound 23]”, the Peptide exchange result is listed as “+++ (≥50 = +++)”.

For the substance “24 (LLFAGTMTV; listed as Homo sapiens) [compound 24]”, the Peptide exchange entry is reported as “++ (≥20% = ++)”.

Take “25 (LLPPPPPPA; listed as Homo sapiens) [compound 25]”: the Peptide exchange result is “+++ (≥50 = +++)”.

On to “26 (MLAEKLLQA; listed as Homo sapiens) [compound 26]”, for which the Peptide exchange result is recorded as “+ (≥10% = +)”.

Turning to “27 (NLREGDQLL; listed as Homo sapiens) [compound 27]”, the Peptide exchange result is “+++ (≥50 = +++)”.

As to “28 (SLDGFTIQV; listed as Homo sapiens) [compound 28]”, the Peptide exchange entry is listed as “++ (≥20% = ++)”.

On to “30 (SLNGNQVTV; listed as Homo sapiens) [compound 30]”, for which the Peptide exchange entry is recorded as “+ (≥10% = +)”.

On to “31 (VLPKLYVKL; listed as Homo sapiens) [compound 31]”, for which the Peptide exchange result is “++ (≥20% = ++)”.

With “32 (YMLDIFHEV; listed as Homo sapiens) [compound 32]”, the Peptide exchange entry is “++ (≥20% = ++)”.

As for “33 (GLDVTSLRPFDL; listed as Homo sapiens) [compound 33]”, the Peptide exchange entry was “+++ (≥50 = +++)”.

Consider “34 (SLVSEQLEPA; listed as Homo sapiens) [compound 34]”, for which the Peptide exchange result is listed as “+++ (≥50 = +++)”.

As to “35 (LLRFSQDNA; listed as Homo sapiens) [compound 35]”, the Peptide exchange result is “+++ (≥50 = +++)”.

As for “36 (FLLRFSQDNA; listed as Homo sapiens) [compound 36]”, the Peptide exchange result is “++ (≥20% = ++)”.

Regarding “37 (YTQPFSHYGQAL; listed as Homo sapiens) [compound 37]”, the Peptide exchange entry is given as “+++ (≥50 = +++)”.

“38 (IAAIRGFLV; listed as Homo sapiens) [compound 38]”: the Peptide exchange result is recorded as “+++ (≥50 = +++)”.

As to “39 (LVRDTQSGSL; listed as Homo sapiens) [compound 39]”, the Peptide exchange result is reported as “++ (≥20% = ++)”.

Turning to “40 (GLAFSLYQA; listed as Homo sapiens) [compound 40]”, the Peptide exchange result is on record as “++ (≥20% = ++)”.

As to “41 (GLESEELEPEEL; listed as Homo sapiens) [compound 41]”, the Peptide exchange entry is listed as “++ (≥20% = ++)”.

As for “42 (TQTAVITRI; listed as Homo sapiens) [compound 42]”, the Peptide exchange result was “+ (≥10% = +)”.

As for “43 (KVVGKDYLL; listed as Homo sapiens) [compound 43]”, the Peptide exchange result is “+ (≥10% = +)”.

For “44 (ATGNDRKEAAENSL; listed as Homo sapiens) [compound 44]”, the Peptide exchange result is reported as “+++ (≥50 = +++)”.

As for “45 (MLTELEKAL; listed as Homo sapiens) [compound 45]”, the Peptide exchange entry was “++ (≥20% = ++)”.

Take “46 (YTAQIGADIAL; listed as Homo sapiens) [compound 46]”: the Peptide exchange result is “+++ (≥50 = +++)”.

As to “48 (SMHQMLDQTL; listed as Homo sapiens) [compound 48]”, the Peptide exchange entry is “++ (≥20% = ++)”.

For the substance “49 (GLMKDIVGA; listed as Homo sapiens) [compound 49]”, the Peptide exchange entry is given as “+++ (≥50 = +++)”.

Regarding “51 (KLFGHLTSA; listed as Homo sapiens) [compound 51]”, the Peptide exchange result is “++ (≥20% = ++)”.

Regarding “52 (VAIGGVDGNVRL; listed as Homo sapiens) [compound 52]”, the Peptide exchange entry is on record as “++ (≥20% = ++)”.

On to “53 (VVVTGLTLV; listed as Homo sapiens) [compound 53]”, for which the Peptide exchange entry is on record as “++ (≥20% = ++)”.

On to “54 (YQDLLNVKM; listed as Homo sapiens) [compound 54]”, for which the Peptide exchange entry was “+++ (≥50 = +++)”.

Turning to “55 (GAIDLLHNV; listed as Homo sapiens) [compound 55]”, the Peptide exchange entry is reported as “++ (≥20% = ++)”.

Take “56 (ALVEVTEHV; listed as Homo sapiens) [compound 56]”: the Peptide exchange entry was “++ (≥20% = ++)”.

On to “57 (GLAPNTPGKA; listed as Homo sapiens) [compound 57]”, for which the Peptide exchange entry is reported as “+++ (≥50 = +++)”.

“58 (LILESIPVV; listed as Homo sapiens) [compound 58]”: the Peptide exchange result is recorded as “++ (≥20% = ++)”.

Consider “59 (SLLDTLREV; listed as Homo sapiens) [compound 59]”, for which the Peptide exchange entry was “+++ (≥50 = +++)”.

For “60 (VVMEELLKV; listed as Homo sapiens) [compound 60]”, the Peptide exchange result is given as “++ (≥20% = ++)”.

As for “61 (TQTTHELTI; listed as Homo sapiens) [compound 61]”, the Peptide exchange result was “+++ (≥50 = +++)”.

“62 (ALYEYQPLQI; listed as Homo sapiens) [compound 62]”: the Peptide exchange entry is “++ (≥20% = ++)”.

For the substance “63 (LAYTLGVKQL; listed as Homo sapiens) [compound 63]”, the Peptide exchange entry is recorded as “+++ (≥50 = +++)”.

Regarding “64 (GLTDVIRDV; listed as Homo sapiens) [compound 64]”, the Peptide exchange entry is “++++ (≥75% = ++++)”.

For “65 (YVVGGFLYQRL; listed as Homo sapiens) [compound 65]”, the Peptide exchange entry is given as “+++ (≥50 = +++)”.

Take “66 (LLDEKVQSV; listed as Homo sapiens) [compound 66]”: the Peptide exchange result is reported as “+++ (≥50 = +++)”.

Consider “67 (SMNGGVFAV; listed as Homo sapiens) [compound 67]”, for which the Peptide exchange entry was “++ (≥20% = ++)”.

On to “68 (PAVLQSSGLYSL; listed as Homo sapiens) [compound 68]”, for which the Peptide exchange result is “++ (≥20% = ++)”.

As to “70 (FVLDTSESV; listed as Homo sapiens) [compound 70]”, the Peptide exchange result is reported as “+++ (≥50 = +++)”.

Take “71 (ASDPILYRPVAV; listed as Homo sapiens) [compound 71]”: the Peptide exchange entry was “+++ (≥50 = +++)”.

In the case of “72 (FLPPAQVTV; listed as Homo sapiens) [compound 72]”, the Peptide exchange result is “++ (≥20% = ++)”.

For the substance “73 (KITEAIQYV; listed as Homo sapiens) [compound 73]”, the Peptide exchange result is “+++ (≥50 = +++)”.

For “74 (ILASLATSV; listed as Homo sapiens) [compound 74]”, the Peptide exchange entry was “+++ (≥50 = +++)”.

In the case of “76 (KVADYIPQL; listed as Homo sapiens) [compound 76]”, the Peptide exchange entry is on record as “+++ (≥50 = +++)”.

As for “78 (KVANIIAEV; listed as Homo sapiens) [compound 78]”, the Peptide exchange entry was “++ (≥20% = ++)”.

As to “79 (GQDVGRYQV; listed as Homo sapiens) [compound 79]”, the Peptide exchange result is given as “++ (≥20% = ++)”.

Consider “80 (ALQEALENA; listed as Homo sapiens) [compound 80]”, for which the Peptide exchange entry is recorded as “++ (≥20% = ++)”.

On to “81 (AVLPHVDQV; listed as Homo sapiens) [compound 81]”, for which the Peptide exchange result is on record as “+++ (≥50 = +++)”.
